Each block holds one molecule with its values, some of them ahead of it.
Assays:
[1] = molecular target: Barrier-to-autointegration factor Gly16Arg variant (BAF Gly16Arg), all cysteines replaced with alanines (human) (UniProt O75531); experiment: SEC; gel filtration of purified, refolded BAF on a Superdex 200 pg HiLoad 16/600 column; elution profiles of WT and Gly16Arg compared
[2] = molecular target: Barrier-to-autointegration factor Gly16Arg variant (BAF Gly16Arg), all cysteines replaced with alanines (human) (UniProt O75531); experiment: ITC; VP-ITC; 10-20 µM monomeric BAF (WT or Gly16Arg) in the cell, 100 µM lamin A/C IgFold domain in the syringe; 50 mM Hepes pH 7.4, 150 mM NaCl; 288 K; duplicate, mean values; stoichiometry set to 0.5 (one IgFold domain for each BAF dimer assumed)
[3] = molecular target: Barrier-to-autointegration factor wild type (BAF WT), all cysteines replaced with alanines (human) (UniProt O75531); experiment: as above
[4] = molecular target: T1, BAF Gly16Arg (Cys-to-Ala background) (Homo sapiens, UniProt O75531 1-89, G16R;C67A;C77A;C80A;C85A); experiment: ITC; unphosphorylated; 288 K; mean of 2; ITC: 50 mM Hepes pH 7.4, 150 mM NaCl, 288 K; 10-20 uM BAF monomer in cell, 31-33 uM dsDNA in syringe; details: protein: recombinant; tags: His8-TEV, cleaved; chain copies: 2
T1 sequence: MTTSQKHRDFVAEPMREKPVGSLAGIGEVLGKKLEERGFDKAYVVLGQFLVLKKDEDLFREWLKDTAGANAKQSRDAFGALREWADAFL

[5] = molecular target: T2, BAF WT (Cys-to-Ala background) (Homo sapiens, UniProt O75531 1-89, C67A;C77A;C80A;C85A); experiment: as above; details: protein: recombinant; tags: His8-TEV, cleaved; chain copies: 2
T2 sequence: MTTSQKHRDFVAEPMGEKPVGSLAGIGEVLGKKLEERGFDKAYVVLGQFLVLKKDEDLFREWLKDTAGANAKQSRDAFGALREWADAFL

- stoichiometry N [1]: 2
Molecule: Barrier-to-autointegration factor Gly16Arg variant (BAF Gly16Arg), all cysteines replaced with alanines (from UniProt O75531 1-89) (natural protein)

- Kd [2]: 9000 nM
- Kd [3]: 2700 nM
Molecule: lamin A/C IgFold domain (human lamin A/C residues 411 to 566) (from UniProt P02545 411-566) (domain or fragment)

B1: 22-nt dsDNA (dsDNA)
DNA 1: CTAGGGTTAGGGTTAGGGTTAG
DNA 2: CTAACCCTAACCCTAACCCTAG
- Kd [4]: 16.3 ± 5.7 nM
- Kd [5]: 117 ± 58 nM
